Measured values reported in US20160200782A1 (MOERAE MATRIX, published 2016).

T1: ZAP-70(h) (human, UniProt P43403 1-619, limits assumed)
T1 sequence (looked up): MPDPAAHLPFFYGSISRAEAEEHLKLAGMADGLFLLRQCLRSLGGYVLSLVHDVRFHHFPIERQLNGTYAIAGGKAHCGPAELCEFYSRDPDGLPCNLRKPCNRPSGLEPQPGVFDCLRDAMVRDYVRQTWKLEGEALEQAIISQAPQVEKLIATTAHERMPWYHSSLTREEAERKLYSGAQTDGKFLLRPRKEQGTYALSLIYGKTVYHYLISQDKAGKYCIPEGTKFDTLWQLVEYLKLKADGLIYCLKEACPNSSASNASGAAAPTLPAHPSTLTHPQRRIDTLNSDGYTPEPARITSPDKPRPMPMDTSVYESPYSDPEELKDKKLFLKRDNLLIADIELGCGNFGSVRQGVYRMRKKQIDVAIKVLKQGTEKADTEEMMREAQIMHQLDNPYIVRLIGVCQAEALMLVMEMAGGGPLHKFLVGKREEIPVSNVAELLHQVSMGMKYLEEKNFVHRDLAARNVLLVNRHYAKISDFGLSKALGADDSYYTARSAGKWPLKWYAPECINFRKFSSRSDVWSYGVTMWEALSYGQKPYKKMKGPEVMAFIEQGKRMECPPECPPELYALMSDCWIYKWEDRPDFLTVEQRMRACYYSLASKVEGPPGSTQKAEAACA

T2: GCK(h) (human, UniProt Q12851 1-820, limits assumed)
T2 sequence (looked up): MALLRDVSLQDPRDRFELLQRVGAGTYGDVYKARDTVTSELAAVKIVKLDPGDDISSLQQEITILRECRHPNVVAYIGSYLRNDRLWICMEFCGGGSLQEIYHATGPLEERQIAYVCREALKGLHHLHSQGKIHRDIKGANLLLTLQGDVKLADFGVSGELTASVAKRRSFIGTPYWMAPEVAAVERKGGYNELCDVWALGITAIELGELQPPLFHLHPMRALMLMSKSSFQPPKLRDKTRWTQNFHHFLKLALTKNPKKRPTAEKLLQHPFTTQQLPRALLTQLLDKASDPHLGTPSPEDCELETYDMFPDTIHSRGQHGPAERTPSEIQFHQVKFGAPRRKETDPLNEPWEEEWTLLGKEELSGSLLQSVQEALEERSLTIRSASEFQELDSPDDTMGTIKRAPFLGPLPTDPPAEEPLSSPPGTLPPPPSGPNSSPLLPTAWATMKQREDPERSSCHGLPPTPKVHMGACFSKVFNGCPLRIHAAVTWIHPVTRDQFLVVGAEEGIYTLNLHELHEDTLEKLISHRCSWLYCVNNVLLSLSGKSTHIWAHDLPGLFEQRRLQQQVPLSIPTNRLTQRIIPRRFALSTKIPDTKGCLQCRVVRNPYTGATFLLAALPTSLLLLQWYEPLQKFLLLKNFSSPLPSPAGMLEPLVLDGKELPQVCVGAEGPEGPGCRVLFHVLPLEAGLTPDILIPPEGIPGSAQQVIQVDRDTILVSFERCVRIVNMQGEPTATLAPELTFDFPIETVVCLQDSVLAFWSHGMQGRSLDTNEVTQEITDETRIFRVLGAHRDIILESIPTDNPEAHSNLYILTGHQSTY

T3: TSSK2(h) (human, UniProt Q96PF2 1-358)
T3 sequence (looked up): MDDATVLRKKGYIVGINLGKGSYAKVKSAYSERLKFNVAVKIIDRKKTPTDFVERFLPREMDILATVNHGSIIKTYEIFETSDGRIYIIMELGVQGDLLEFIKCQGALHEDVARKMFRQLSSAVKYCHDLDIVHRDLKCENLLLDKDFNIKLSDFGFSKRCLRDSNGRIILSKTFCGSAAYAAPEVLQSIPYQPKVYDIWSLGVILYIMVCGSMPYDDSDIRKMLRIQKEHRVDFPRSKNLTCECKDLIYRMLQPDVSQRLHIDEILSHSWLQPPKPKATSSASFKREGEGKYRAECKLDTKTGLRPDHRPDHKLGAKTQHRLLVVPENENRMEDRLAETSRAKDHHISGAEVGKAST

T4: MST1(h) (human, UniProt Q13043 1-487, limits assumed)
T4 sequence (looked up): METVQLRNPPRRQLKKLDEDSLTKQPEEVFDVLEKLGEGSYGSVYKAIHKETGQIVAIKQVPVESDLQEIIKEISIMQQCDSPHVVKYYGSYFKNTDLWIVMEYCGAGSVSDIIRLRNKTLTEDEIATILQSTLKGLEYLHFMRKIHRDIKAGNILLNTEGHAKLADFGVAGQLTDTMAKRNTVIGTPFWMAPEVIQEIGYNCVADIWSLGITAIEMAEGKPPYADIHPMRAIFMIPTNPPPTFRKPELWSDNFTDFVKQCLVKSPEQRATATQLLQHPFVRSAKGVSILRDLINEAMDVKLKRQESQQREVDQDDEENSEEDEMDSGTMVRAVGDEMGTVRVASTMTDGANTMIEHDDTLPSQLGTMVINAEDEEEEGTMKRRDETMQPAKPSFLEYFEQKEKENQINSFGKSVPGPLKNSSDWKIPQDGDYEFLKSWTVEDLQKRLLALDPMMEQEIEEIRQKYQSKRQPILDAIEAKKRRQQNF


Tests used:
Assay in all cases: cell-based or functional assay
Mnk2(h) = Mnk2(h) (human, UniProt Q9HBH9 1-465, limits assumed)
ZAP-70(h) = target: T1, ZAP-70(h)
PAK3(h) = PAK3(h) (human, UniProt O75914 1-559, limits assumed)
MARK1(h) = MARK1(h) (human, UniProt Q9P0L2 1-795, limits assumed)
PASK(h) = PASK(h) (human, UniProt Q96RG2 879-1323, limits assumed)
GCK(h) = target: T2, GCK(h)
PTK5(h) = PTK5(h) (human, UniProt P42685 1-505, limits assumed)
IGF-1R(h), activated = IGF-1R(h), activated (human, UniProt P08069 959-1367, limits assumed)
TSSK2(h) = target: T3, TSSK2(h)
Src(T341M)(h) = Src(T341M)(h) (human, UniProt P12931 1-536, limits assumed)
MST1(h) = target: T4, MST1(h)
Also: test concentration or dose not given here.

| Binder | % activity (Mnk2(h)) | % activity (ZAP-70(h)) | % activity (PAK3(h)) | % activity (MARK1(h)) | % activity (PASK(h)) | % activity (GCK(h)) | % activity (PTK5(h)) | % activity (IGF-1R(h), activated) | % activity (TSSK2(h)) | % activity (Src(T341M)(h)) | % activity (MST1(h)) |
| --- | --- | --- | --- | --- | --- | --- | --- | --- | --- | --- | --- |
| FAKLAARLYRKALARQLGVAA [MMI-0300] | 89% | 75% | 140% | 132% | 29% | 70% | 132% | 80% | 98% | 70% | 14% |
| KAFAKLAARLYRKALARQLGVAA [MMI-0400] | 86% | 33% | 121% | 120% | 28% | 66% | 129% | 77% | 94% | 76% | 6% |
